Reference: US20230265151A1, “GIP/GLP1 CO-AGONIST COMPOUNDS” (priority 2020, published 2023)
*1 amine or outer side, *2 acyl side, *3 side chain or, on linkers, in order; H or OH if unused. Where no end group is shown, it is not given here. Side-chain parts run from the residue outwards. [ ]: non-standard residue; d: D form. The star is where a group is joined. Undecanoyl(11-OPh(4-COOH)) = O=C(O)c1ccc(OCCCCCCCCCCC(=O)*)cc1; Decanoyl(10-(4-HOOC-PhO)) = O=C(O)c1ccc(OCCCCCCCCCC(=O)*)cc1; αMePhe(2-F) = C[C@](N)(Cc1ccccc1F)C(=O)O; γGlu = O=C(O)[C@H](CCC(=O)[*:2])N[*:1]; C14 diacid = O=C(O)CCCCCCCCCCCCC(=O)*; αMeY = C[C@](N)(Cc1ccc(O)cc1)C(=O)O; αMeL = CC(C)C[C@](C)(N)C(=O)O; αMeS = C[C@](N)(CO)C(=O)O; Orn = NCCC[C@H](N)C(=O)O; AEEA = NCCOCCOCC(=O)O; Aib = CC(C)(N)C(=O)O

T1: human GIP receptor (human, UniProt P48546 22-466)
T1 sequence (looked up): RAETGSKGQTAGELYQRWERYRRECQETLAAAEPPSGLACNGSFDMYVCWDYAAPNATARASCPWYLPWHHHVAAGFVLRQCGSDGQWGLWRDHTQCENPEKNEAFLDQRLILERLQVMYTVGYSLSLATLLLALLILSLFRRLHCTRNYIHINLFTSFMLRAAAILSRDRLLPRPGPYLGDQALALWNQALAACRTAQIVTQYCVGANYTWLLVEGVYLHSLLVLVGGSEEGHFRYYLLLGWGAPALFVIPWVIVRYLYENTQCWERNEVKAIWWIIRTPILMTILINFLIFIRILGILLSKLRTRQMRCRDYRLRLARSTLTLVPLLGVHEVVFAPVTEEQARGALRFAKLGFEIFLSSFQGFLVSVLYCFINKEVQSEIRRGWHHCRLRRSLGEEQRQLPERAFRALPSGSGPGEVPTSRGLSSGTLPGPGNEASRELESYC

T2: human GIP receptor (human, UniProt P48546 22-466)
T2 sequence (looked up): T1 sequence (looked up)

T3: human GIP receptor (human, UniProt P48546 22-466)
T3 sequence (looked up): T1 sequence (looked up)

B1: Example 339 (peptide)
peptide: YXEGTXTSDXXIXLDXIAQXEFIKXLIKGGPSSGAPPPS
modifications: Y-Aib-EGT-αMeF(2F)-TSD-4Pal-Aib-I-αMeL-LD-Orn-IAQ-Aib-EFIK((2-[2-(2-Amino-ethoxy)-ethoxy]-acetyl)-(γ-Glu)-CO-(CH2)12-CO2H)-αMeY-LIK((2-[2-(2-Amino-ethoxy)-ethoxy]-acetyl)-(γ-Glu)-CO-(CH2)12-CO2H)GGPSSGAPPPS-NH2
B2: Example 305 (peptide)
peptide: Y[Aib]EGT[αMePhe(2-F)]TSDV[αMeS]I[αMeL]LD[Orn]IAQ[Aib]EFIK([AEEA-AEEA-γGlu-C14 diacid])[αMeY]LIK([AEEA-AEEA-γGlu-C14 diacid])GGPSSGAPPPS-NH2
modifications: N-terminus assumed
SMILES: CC[C@H](C)[C@H](NC(=O)[C@H](CCCN)NC(=O)[C@H](CC(=O)O)NC(=O)[C@H](CC(C)C)NC(=O)[C@](C)(CC(C)C)NC(=O)[C@@H](NC(=O)[C@](C)(CO)NC(=O)[C@@H](NC(=O)[C@H](CC(=O)O)NC(=O)[C@H](CO)NC(=O)[C@@H](NC(=O)[C@](C)(Cc1ccccc1F)NC(=O)[C@@H](NC(=O)CNC(=O)[C@H](CCC(=O)O)NC(=O)C(C)(C)NC(=O)[C@@H](N)Cc1ccc(O)cc1)[C@@H](C)O)[C@@H](C)O)C(C)C)[C@@H](C)CC)C(=O)N[C@@H](C)C(=O)N[C@@H](CCC(N)=O)C(=O)NC(C)(C)C(=O)N[C@@H](CCC(=O)O)C(=O)N[C@@H](Cc1ccccc1)C(=O)N[C@H](C(=O)N[C@@H](CCCCNC(=O)COCCOCCNC(=O)COCCOCCNC(=O)CC[C@H](NC(=O)CCCCCCCCCCCCC(=O)O)C(=O)O)C(=O)N[C@@](C)(Cc1ccc(O)cc1)C(=O)N[C@@H](CC(C)C)C(=O)N[C@H](C(=O)N[C@@H](CCCCNC(=O)COCCOCCNC(=O)COCCOCCNC(=O)CC[C@H](NC(=O)CCCCCCCCCCCCC(=O)O)C(=O)O)C(=O)NCC(=O)NCC(=O)N1CCC[C@H]1C(=O)N[C@@H](CO)C(=O)N[C@@H](CO)C(=O)NCC(=O)N[C@@H](C)C(=O)N1CCC[C@H]1C(=O)N1CCC[C@H]1C(=O)N1CCC[C@H]1C(=O)N[C@@H](CO)C(N)=O)[C@@H](C)CC)[C@@H](C)CC
B3: Example 344 (peptide)
peptide: Y[Aib]EGT[αMePhe(2-F)]TSDV[Aib]I[αMeL]LD[Orn]IAQ[Aib]EFIK([AEEA-AEEA-AEEA-γGlu-C14 diacid])[αMeY]LIK([AEEA-AEEA-AEEA-γGlu-C14 diacid])GGPSSGAPPPS-NH2
modifications: N-terminus assumed
SMILES: CC[C@H](C)[C@H](NC(=O)[C@H](CCCN)NC(=O)[C@H](CC(=O)O)NC(=O)[C@H](CC(C)C)NC(=O)[C@](C)(CC(C)C)NC(=O)[C@@H](NC(=O)C(C)(C)NC(=O)[C@@H](NC(=O)[C@H](CC(=O)O)NC(=O)[C@H](CO)NC(=O)[C@@H](NC(=O)[C@](C)(Cc1ccccc1F)NC(=O)[C@@H](NC(=O)CNC(=O)[C@H](CCC(=O)O)NC(=O)C(C)(C)NC(=O)[C@@H](N)Cc1ccc(O)cc1)[C@@H](C)O)[C@@H](C)O)C(C)C)[C@@H](C)CC)C(=O)N[C@@H](C)C(=O)N[C@@H](CCC(N)=O)C(=O)NC(C)(C)C(=O)N[C@@H](CCC(=O)O)C(=O)N[C@@H](Cc1ccccc1)C(=O)N[C@H](C(=O)N[C@@H](CCCCNC(=O)COCCOCCNC(=O)COCCOCCNC(=O)COCCOCCNC(=O)CC[C@H](NC(=O)CCCCCCCCCCCCC(=O)O)C(=O)O)C(=O)N[C@@](C)(Cc1ccc(O)cc1)C(=O)N[C@@H](CC(C)C)C(=O)N[C@H](C(=O)N[C@@H](CCCCNC(=O)COCCOCCNC(=O)COCCOCCNC(=O)COCCOCCNC(=O)CC[C@H](NC(=O)CCCCCCCCCCCCC(=O)O)C(=O)O)C(=O)NCC(=O)NCC(=O)N1CCC[C@H]1C(=O)N[C@@H](CO)C(=O)N[C@@H](CO)C(=O)NCC(=O)N[C@@H](C)C(=O)N1CCC[C@H]1C(=O)N1CCC[C@H]1C(=O)N1CCC[C@H]1C(=O)N[C@@H](CO)C(N)=O)[C@@H](C)CC)[C@@H](C)CC
B4: Example 91 (peptide)
peptide: Y[Aib]EGT[αMePhe(2-F)]TSDV[Aib]I[αMeL]LD[Orn]K([AEEA-AEEA-γGlu-C14 diacid])AQ[Aib]EFI[dE][αMeY]LIEGGK([AEEA-AEEA-γGlu-C14 diacid])SSGAPPPS-NH2
modifications: N-terminus assumed
SMILES: CC[C@H](C)[C@H](NC(=O)[C@H](CC(C)C)NC(=O)[C@](C)(Cc1ccc(O)cc1)NC(=O)[C@@H](CCC(=O)O)NC(=O)[C@@H](NC(=O)[C@H](Cc1ccccc1)NC(=O)[C@H](CCC(=O)O)NC(=O)C(C)(C)NC(=O)[C@H](CCC(N)=O)NC(=O)[C@H](C)NC(=O)[C@H](CCCCNC(=O)COCCOCCNC(=O)COCCOCCNC(=O)CC[C@H](NC(=O)CCCCCCCCCCCCC(=O)O)C(=O)O)NC(=O)[C@H](CCCN)NC(=O)[C@H](CC(=O)O)NC(=O)[C@H](CC(C)C)NC(=O)[C@](C)(CC(C)C)NC(=O)[C@@H](NC(=O)C(C)(C)NC(=O)[C@@H](NC(=O)[C@H](CC(=O)O)NC(=O)[C@H](CO)NC(=O)[C@@H](NC(=O)[C@](C)(Cc1ccccc1F)NC(=O)[C@@H](NC(=O)CNC(=O)[C@H](CCC(=O)O)NC(=O)C(C)(C)NC(=O)[C@@H](N)Cc1ccc(O)cc1)[C@@H](C)O)[C@@H](C)O)C(C)C)[C@@H](C)CC)[C@@H](C)CC)C(=O)N[C@@H](CCC(=O)O)C(=O)NCC(=O)NCC(=O)N[C@@H](CCCCNC(=O)COCCOCCNC(=O)COCCOCCNC(=O)CC[C@H](NC(=O)CCCCCCCCCCCCC(=O)O)C(=O)O)C(=O)N[C@@H](CO)C(=O)N[C@@H](CO)C(=O)NCC(=O)N[C@@H](C)C(=O)N1CCC[C@H]1C(=O)N1CCC[C@H]1C(=O)N1CCC[C@H]1C(=O)N[C@@H](CO)C(N)=O

Legend:
Experiment in all cases: cell-based or functional assay
[1] = molecular target: T1, human GIP receptor
[2] = molecular target: human GLP-1 receptor (human, UniProt P43220 24-463)
[3] = molecular target: T2, human GIP receptor; remark: listed apart in the source
[4] = molecular target: human GLP-1 receptor (human, UniProt P43220 24-463); remark: listed apart in the source
[5] = molecular target: T3, human GIP receptor; remark: listed apart in the source
[6] = molecular target: human GLP-1 receptor (human, UniProt P43220 24-463); remark: listed apart in the source

| Binder | cAMP EC50 (1.0% HSA) [1] | cAMP EC50 (1.0% HSA) [2] | other results |
| --- | --- | --- | --- |
| B1 | 4.35 nM | 68.2 nM | cAMP Emax (1.0% HSA) [2]: 115% |
| Y[Aib]EGT[αMePhe(2-F)]TSDV[Aib]I[αMeL]LD[Orn]IAQ[Aib]EFIK([AEEA-AEEA-γGlu-Decanoyl(10-(4-HOOC-PhO))])[αMeY]LIK([AEEA-AEEA-γGlu-Decanoyl(10-(4-HOOC-PhO))])GGPSSGAPPPS-NH2 [Example 308] | 10.5 nM | 67.3 nM | – |
| Y[Aib]EGT[αMePhe(2-F)]TSDV[Aib]I[αMeL]LD[Orn]IAQ[Aib]EFIK([AEEA-γGlu-Decanoyl(10-(4-HOOC-PhO))])[αMeY]LIK([AEEA-γGlu-Decanoyl(10-(4-HOOC-PhO))])GGPSSGAPPPS-NH2 [Example 381] | – | – | cAMP EC50 (1.0% HSA) [3]: 28 nM; cAMP EC50 (1.0% HSA) [4]: 153 nM |
| Y[Aib]EGT[αMePhe(2-F)]TSDV[Aib]I[αMeL]LD[Orn]IAQ[Aib]EFIK([AEEA-AEEA-AEEA-γGlu-Decanoyl(10-(4-HOOC-PhO))])[αMeY]LIK([AEEA-AEEA-AEEA-γGlu-Decanoyl(10-(4-HOOC-PhO))])GGPSSGAPPPS-NH2 [Example 347] | 7.27 nM | 51.7 nM | cAMP Emax (1.0% HSA) [1]: 84.6% |
| B2 | 4.34 nM | 80.3 nM | cAMP Emax (1.0% HSA) [2]: 125% |
| Y[Aib]EGT[αMePhe(2-F)]TSDV[Aib]I[αMeL]LD[Orn]IAQ[Aib]EFIK([AEEA-AEEA-γGlu-C14 diacid])[αMeY]LIK([AEEA-AEEA-γGlu-C14 diacid])GGPSSGAPPPS-NH2 [Example 304] | 4.83 nM | 64.2 nM | – |
| B3 | 6.78 nM | 48.3 nM | cAMP Emax (1.0% HSA) [1]: 87.3% |
| Y[Aib]EGT[αMePhe(2-F)]TSDV[Aib]I[αMeL]LD[Orn]IAQ[Aib]EFIK([AEEA-AEEA-γGlu-Undecanoyl(11-OPh(4-COOH))])[αMeY]LIK([AEEA-AEEA-γGlu-Undecanoyl(11-OPh(4-COOH))])GGPSSGAPPPS-NH2 [Example 313] | 21.9 nM | 98.8 nM | – |
| B4 | – | – | EC50, cAMP [5]: 0.0739 nM; Emax, cAMP [5]: 92.8%; EC50, cAMP [6]: 0.153 nM; Emax, cAMP [6]: 94% |
| Y[Aib]EGT[αMePhe(2-F)]TSDV[αMeS]I[αMeL]LD[Orn]IAQ[Aib]EFIK([AEEA-AEEA-γGlu-Decanoyl(10-(4-HOOC-PhO))])[αMeY]LIK([AEEA-AEEA-γGlu-Decanoyl(10-(4-HOOC-PhO))])GGPSSGAPPPS-NH2 [Example 309] | 6.08 nM | 64.6 nM | – |
